The RNAGym collection of RNA variant scans (doi:10.1093/molbev/msab373)

B1: Azoarcus group I ribozyme (parent)
chain: GUGCCUUGCGCCGGGAAACCACGCAAGGGAUGGUGUCAAAUUCGGCGAAACCUAAGCGCCCGCCCGGGCGUAUGGCAACGCCGAGCCAAGCUUCGGCGCCUGCGCCGAUGAAGGUGUAGAGACUAGACGGCACCCACCUAAGGCAAACGCUAUGGUGAAGGCAUAGUCCAGGGAGUGGCGAAAGUCACACAAACCGG

Variants of: B1
Assay: reverse-splicing fitness (ratio to wild type); higher = more active; in vitro selection; Mg2+ level not given
In short: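 An in vitro group I ribozyme library with randomized positions was T7-transcribed and gel-purified. In triplicate, 10 pmol RNA in EPPS pH 7.5 was reacted with 50 pmoles of a 30-nt RNA substrate for 1 h at 37 °C across several added MgCl2 levels (1–48 mM), then stopped with EDTA. Products were reverse transcribed from a substrate-complementary primer, PCR-amplified and sequenced (HiSeq 4000). Fitness is a variant's read proportion after selection over that before, normalised to wild type.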

Row | Variant | reverse-splicing fitness
1 | A111C A145U C150U C169G U176C | 0.0215
2 | A111G A120C A145C C150A | 0.0611
3 | A111G A120C A145C C150U | 0.298
4 | A111G A120C A145C C150G | 0.136
5 | A111C A145U C169A | 0.0348
6 | A111C A145U C169G | 0.071
7 | A111C A145U C169U | 0.116
8 | A111C A145G U176C | 0.401
9 | A111C A145G U176A | 0.432
10 | A111C A145G U176G | 0.185
11 | A111C C150A C169A U176A | 0.0182
12 | A111C C150A C169A U176C | 0.0227
13 | A111C C150A C169A U176G | 0.00777
14 | A111C C150A U176C | 0.147
15 | A111C C150A U176A | 0.12
16 | A111C C150A U176G | 0.0531
17 | A111C A145G C150A C169G U176C | 0.0293
18 | A111C A145G C150A C169G U176G | 0.00728
19 | A111C A145G C150A C169G U176A | 0.0153
20 | A111G A120C A145G C150U U176A | 0.287
21 | A111G A120C A145G C150U U176C | 0.316

Row | Variant | reverse-splicing fitness
22 | A111G A120C A145G C150U U176G | 0.0682
23 | A111C A145U C169G U176A | 0.0179
24 | A111C A145U C169G U176C | 0.0264
25 | A111C A145U C169G U176G | 0.00719
26 | A111C A145G C150U C169G U176C | 0.021
27 | A111C A145G C150U C169G U176A | 0.0138
28 | A111C A145G C150U C169G U176G | 0.00741
29 | A111C C150G C169U U176G | 0.00651
30 | A111C C150G C169U U176C | 0.014
31 | A111C C150G C169U U176A | 0.00732
32 | A111C A145U C150A C169A | 0.0106
33 | A111C A145U C150A C169U | 0.0179
34 | A111C A145U C150A C169G | 0.0113
35 | A111G A120C A145C C150A C169U U176G | 0.00433
36 | A111G A120C A145C C150A C169U U176C | 0.012
37 | A111G A120C A145C C150A C169U U176A | 0.016
38 | A111G A120C A145C C150G U176G | 0.00421
39 | A111G A120C A145C C150G U176A | 0.0148
40 | A111G A120C A145C C150G U176C | 0.0508
41 | A111C A145U C150G U176C | 0.119
42 | A111C A145U C150G U176A | 0.0925

Row | Variant | reverse-splicing fitness
43 | A111C A145U C150G U176G | 0.022
44 | A111G A120C A145U C150A C169A U176A | 0.0107
45 | A111G A120C A145U C150A C169A U176C | 0.00676
46 | A111G A120C A145U C150A C169A U176G | 0.00401
47 | A111G A120C A145U C150A | 0.111
48 | A111G A120C A145C C150A U176A | 0.0376
49 | A111G A120C A145C C150A U176C | 0.0404
50 | A111G A120C A145C C150A U176G | 0.0123
51 | A111C A145G C150G U176C | 0.13
52 | A111C A145G C150G U176A | 0.0686
53 | A111C A145G C150G U176G | 0.0194
54 | A111G A120C A145G C150G C169U U176A | 0.00706
55 | A111G A120C A145G C150G C169U U176C | 0.0116
56 | A111G A120C A145G C150G C169U U176G | 0.00458
57 | A111G A120C A145C C150U U176G | 0.05
58 | A111G A120C A145C C150U U176C | 0.158
59 | A111G A120C A145C C150U U176A | 0.17
60 | A111G A120C A145G C150A C169U U176A | 0.0243
61 | A111G A120C A145G C150A C169U U176C | 0.0231
62 | A111G A120C A145G C150A C169U U176G | 0.00549
63 | A111G A120C A145G U176G | 0.0972

Row | Variant | reverse-splicing fitness
64 | A111G A120C A145G U176A | 0.457
65 | A111G A120C A145G U176C | 0.44
66 | A111C C150G U176A | 0.0504
67 | A111C C150G U176G | 0.0131
68 | A111C C150G U176C | 0.0763
69 | A111G A120C A145C C169U U176C | 0.061
70 | A111G A120C A145C C169U U176A | 0.0611
71 | A111G A120C A145C C169U U176G | 0.00718
72 | A111G A120C A145G C150A C169G U176A | 0.0231
73 | A111G A120C A145G C150A C169G U176C | 0.0221
74 | A111G A120C A145G C150A C169G U176G | 0.00551
75 | A111G A120C A145C C150G C169A U176G | 0.00452
76 | A111G A120C A145C C150G C169A U176A | 0.00532
77 | A111G A120C A145C C150G C169A U176C | 0.00524
78 | A111G A120C A145G C169G | 0.0121
79 | A111G A120C A145G C169U | 0.254
80 | A111G A120C A145G C169A | 0.0165
81 | A111G A120C A145G C169G U176G | 0.00387
82 | A111G A120C A145G C169G U176C | 0.0194
83 | A111G A120C A145G C169G U176A | 0.019
